Results published in paper doi:10.1101/2023.08.10.552882.

Biological target: human 26S proteasome (human) (UniProt O00487)
Experiment: single-molecule TIRF microscopy

Sequence of UniProt O00487 (O00487 whole entry, looked up): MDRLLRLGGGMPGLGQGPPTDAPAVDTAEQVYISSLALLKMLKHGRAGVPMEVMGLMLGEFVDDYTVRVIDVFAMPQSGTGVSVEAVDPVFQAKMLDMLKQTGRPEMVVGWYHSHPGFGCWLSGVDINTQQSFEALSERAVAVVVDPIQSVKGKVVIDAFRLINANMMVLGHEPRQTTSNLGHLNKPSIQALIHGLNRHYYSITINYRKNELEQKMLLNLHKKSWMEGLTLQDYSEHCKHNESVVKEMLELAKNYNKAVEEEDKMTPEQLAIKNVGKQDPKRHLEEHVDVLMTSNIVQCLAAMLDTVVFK

| half-life of the proteasome-substrate complex [s] | puncta density relative to pK48-polyUb-GFP [fold] | Substance |
| --- | --- | --- |
| 2.82 | 5 | K48-polyUb-GFP (from UniProt P0CG48) |
| 0.73 |  | pK48-polyUb-GFP (from UniProt P0CG48) |
